This is an account of results in PMC3430514.

Like-named read-outs stand apart in the source and are kept apart here.

For one series, the target named is T1, RIG-I helicase-RD (human, UniProt O95786 232-925).
T1 sequence: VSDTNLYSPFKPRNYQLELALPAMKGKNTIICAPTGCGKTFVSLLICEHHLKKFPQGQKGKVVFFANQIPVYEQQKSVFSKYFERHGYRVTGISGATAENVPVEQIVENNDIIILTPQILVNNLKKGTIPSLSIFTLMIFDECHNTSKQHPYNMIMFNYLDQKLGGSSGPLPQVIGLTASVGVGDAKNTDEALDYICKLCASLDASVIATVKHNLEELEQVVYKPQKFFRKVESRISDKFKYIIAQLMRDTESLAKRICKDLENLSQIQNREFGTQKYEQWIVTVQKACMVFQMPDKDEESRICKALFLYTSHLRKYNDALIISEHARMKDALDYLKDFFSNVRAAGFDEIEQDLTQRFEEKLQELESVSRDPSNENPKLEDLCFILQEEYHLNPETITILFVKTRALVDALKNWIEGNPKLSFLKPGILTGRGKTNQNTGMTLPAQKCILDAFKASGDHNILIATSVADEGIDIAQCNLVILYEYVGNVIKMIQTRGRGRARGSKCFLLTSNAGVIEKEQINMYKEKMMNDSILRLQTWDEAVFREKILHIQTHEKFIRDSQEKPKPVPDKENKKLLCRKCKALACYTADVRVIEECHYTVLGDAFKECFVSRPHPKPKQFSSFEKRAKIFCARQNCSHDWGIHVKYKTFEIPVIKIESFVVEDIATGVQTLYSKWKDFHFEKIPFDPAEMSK
Briefly: X-ray crystallography.

Series [1] addresses T2, RIG-I RD (repressor domain) (human, UniProt O95786 795-925).
T2 sequence: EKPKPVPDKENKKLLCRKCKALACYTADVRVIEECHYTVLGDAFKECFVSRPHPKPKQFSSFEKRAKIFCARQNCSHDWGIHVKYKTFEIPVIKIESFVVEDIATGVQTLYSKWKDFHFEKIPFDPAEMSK
Kind of series: fluorescence anisotropy.

Series [2] has as its target T3, RIG-I helicase domain (human, UniProt O95786 232-794).
T3 sequence: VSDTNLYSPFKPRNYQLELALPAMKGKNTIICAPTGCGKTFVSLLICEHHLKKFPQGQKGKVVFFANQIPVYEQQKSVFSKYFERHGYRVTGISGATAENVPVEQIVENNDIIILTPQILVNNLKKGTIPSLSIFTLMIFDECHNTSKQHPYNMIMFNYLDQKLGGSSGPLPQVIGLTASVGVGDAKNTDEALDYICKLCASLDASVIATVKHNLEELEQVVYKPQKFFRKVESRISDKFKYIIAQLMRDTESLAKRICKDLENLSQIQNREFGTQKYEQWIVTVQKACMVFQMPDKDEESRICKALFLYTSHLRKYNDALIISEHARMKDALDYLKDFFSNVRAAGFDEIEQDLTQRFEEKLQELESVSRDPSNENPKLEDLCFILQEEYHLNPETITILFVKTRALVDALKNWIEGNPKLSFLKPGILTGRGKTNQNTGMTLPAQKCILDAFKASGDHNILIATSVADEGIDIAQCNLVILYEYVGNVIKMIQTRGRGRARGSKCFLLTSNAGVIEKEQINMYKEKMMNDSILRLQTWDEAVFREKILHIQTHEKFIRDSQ
Kind of series: fluorescence anisotropy.

The next series deals with T4, RIG-I full-length (human, UniProt O95786 1-925).
T4 sequence: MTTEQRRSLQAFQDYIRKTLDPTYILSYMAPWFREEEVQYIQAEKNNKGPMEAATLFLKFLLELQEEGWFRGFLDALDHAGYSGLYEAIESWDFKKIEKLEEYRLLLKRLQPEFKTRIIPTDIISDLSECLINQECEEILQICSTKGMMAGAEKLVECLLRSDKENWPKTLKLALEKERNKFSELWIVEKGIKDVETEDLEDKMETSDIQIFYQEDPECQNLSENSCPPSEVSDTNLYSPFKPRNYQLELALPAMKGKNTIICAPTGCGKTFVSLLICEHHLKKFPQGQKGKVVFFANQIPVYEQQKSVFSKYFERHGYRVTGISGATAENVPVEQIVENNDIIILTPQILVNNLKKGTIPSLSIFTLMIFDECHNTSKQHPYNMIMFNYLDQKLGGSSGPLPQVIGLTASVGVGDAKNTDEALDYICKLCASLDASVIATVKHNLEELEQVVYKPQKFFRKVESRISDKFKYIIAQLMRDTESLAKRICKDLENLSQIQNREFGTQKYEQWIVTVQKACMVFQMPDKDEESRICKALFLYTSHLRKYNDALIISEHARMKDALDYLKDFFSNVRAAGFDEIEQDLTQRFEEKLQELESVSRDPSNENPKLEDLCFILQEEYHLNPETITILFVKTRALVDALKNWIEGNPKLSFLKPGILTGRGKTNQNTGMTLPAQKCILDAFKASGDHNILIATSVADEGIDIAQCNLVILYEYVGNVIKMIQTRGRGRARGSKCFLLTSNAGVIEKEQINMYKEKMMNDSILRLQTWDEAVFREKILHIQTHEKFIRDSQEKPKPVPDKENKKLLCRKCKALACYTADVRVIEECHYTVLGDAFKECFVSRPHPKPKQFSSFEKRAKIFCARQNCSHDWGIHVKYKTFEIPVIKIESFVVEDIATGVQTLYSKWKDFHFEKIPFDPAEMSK
Briefly: fluorescence anisotropy.

For series [3], the target named is T3, RIG-I helicase domain. Briefly: fluorescence anisotropy. This is another data set of the same source.

B1: 14bp pal dsRNA (dsRNA)
RNA 1: CGACGCUAGCGUCG
RNA 2: CGACGCUAGCGUCG
modifications: 5-iodouridine derivative also crystallized
For the molecule B1, the binding result with RIG-I helicase-RD is listed as “binds”.

B2: 14bp dsRNA-F (dsRNA)
RNA 1: GGAGAGAACCGCCU
RNA 2: AGGCGGUUCUCUCC
modifications: 5'-OH
Turning to B2, the dissociation constant Kd in series [1] was 2.6 ± 1.2 nM; with RIG-I helicase domain [2], 436 ± 121 nM; in the series with RIG-I full-length, 1.2 nM; with RIG-I helicase domain [3], 1300 nM.
